Laboratory results taken from patent US20250076311A1 (Chugai, published 2025).
Changes are numbered by the printed parent chain. Numbers in names are those of the source.

T1: cynomolgus monkey FcγRIIIaS extracellular domain with C-terminal His-tag (cynomolgus monkey, UniProt Q8SPW2 21-206 at identity 1.00))
T1 construct: also called cyno FcgRIIIaS; cynoFcγRIIIaS
T1 chain: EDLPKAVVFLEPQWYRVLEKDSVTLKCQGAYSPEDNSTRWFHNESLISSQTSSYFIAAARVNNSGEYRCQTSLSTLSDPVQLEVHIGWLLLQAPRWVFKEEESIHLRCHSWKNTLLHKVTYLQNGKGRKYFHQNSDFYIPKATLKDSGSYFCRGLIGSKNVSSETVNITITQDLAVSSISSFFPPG

T2: human FcγRIIaH extracellular domain with C-terminal His-tag (human, UniProt P12318 34-217)
T2 construct: also called human FcgRIIaH; FcγRIIa (type H)
T2 sequence: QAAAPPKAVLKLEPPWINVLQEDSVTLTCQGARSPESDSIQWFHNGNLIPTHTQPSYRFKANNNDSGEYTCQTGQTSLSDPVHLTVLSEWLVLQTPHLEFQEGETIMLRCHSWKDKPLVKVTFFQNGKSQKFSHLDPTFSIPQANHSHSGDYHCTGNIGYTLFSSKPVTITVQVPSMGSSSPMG

T3: human FcγRIIaR extracellular domain with C-terminal His-tag (human, UniProt P12318 34-217)
T3 construct: also called human FcgRIIaR; FcγRIIa (type R)
T3 chain: T2 sequence with H134R

T4: human FcγRIIb extracellular domain with C-terminal His-tag (human, UniProt P31994 43-217)
T4 construct: also called human FcgRIIb
T4 sequence: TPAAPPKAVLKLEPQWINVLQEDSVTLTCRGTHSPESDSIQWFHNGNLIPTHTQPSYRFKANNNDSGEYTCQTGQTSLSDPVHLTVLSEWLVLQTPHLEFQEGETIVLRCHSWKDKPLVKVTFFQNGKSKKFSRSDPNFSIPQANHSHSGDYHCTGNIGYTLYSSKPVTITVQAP

T5: human FcγRIIb extracellular domain with C-terminal His-tag (human, UniProt P31994 43-217)
T5 construct: also called human FcgRIIb
T5 sequence: T4 sequence

T6: cynomolgus monkey FcγRIIa2 extracellular domain with C-terminal His-tag (cynomolgus monkey)
T6 construct: also called cyno FcgRIIa2; cynoFcγRIIa2
T6 chain: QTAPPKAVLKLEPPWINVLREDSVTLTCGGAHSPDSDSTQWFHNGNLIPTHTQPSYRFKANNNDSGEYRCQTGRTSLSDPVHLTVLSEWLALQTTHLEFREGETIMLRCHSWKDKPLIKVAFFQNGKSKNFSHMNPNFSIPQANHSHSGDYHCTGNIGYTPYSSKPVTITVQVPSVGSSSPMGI

T7: human FcγRIIaR extracellular domain, His-tagged (human, UniProt P12318 34-217)
T7 construct: also called human FcγRIIa (type R); FcgRIIaR; not shown: C-terminal His-tag
T7 chain: T2 sequence with H134R

T8: human FcγRIIb extracellular domain, His-tagged (human, UniProt P31994 43-217)
T8 construct: also called FcgRIIb (human); not shown: C-terminal His-tag
T8 sequence: T4 sequence

B1: MS1032LO06-MY101 (antibody, human IgG1, kappa)
heavy: QVTLKESGPVLVKPTETLTLTCTVSGIDLSHDDISWVRQAPGKGLEWVGIISYAGSTYYASWAKGRLTISKDTSKNQVVLTMTNMDPVDTATYYCARGVPAYSHGGDLWGQGTLVTVSSASTKGPSVFPLAPSSKSTSGGTAALGCLVKDYFPEPVTVSWNSGALTSGVHTFPAVLQSSGLYSLSSVVTVPSSSLGTQTYICNVNHKPSNTKVDKKVEPKSCDKTHTCPPCPAPELLNGPSVFLFPPKPKDTLMISRTPEVTCVVVDVSEEDPEVKFNWYVDGVEVHNAKTKPREEQYNSTYRVVSVLTVLHQDWLNGKEYKCKVSNKALPKPIEKTISKAKGQPREPQVYTLPPSREEMTKNQVSLTCLVKGFYPSDIAVEWESNGQPENNYKTTPMVLDSDGSFFLYSKLTVDKSRWQQGNVFSCSVMHEALHNHYTQKSLSLSP
light: DIVMTQSPATLSLSPGERATLSCTSSQSVYHANWLSWFQQKPGQPPKLLIYWASTLAYGVPSRFSGSGSGTDFTLTISSLQPEDAATYYCAGGYGGGRYAFGQGTKVEIKRTVAAPSVFIFPPSDEQLKSGTASVVCLLNNFYPREAKVQWKVDNALQSGNSQESVTEQDSKDSTYSLSSTLTLSKADYEKHKVYACEVTHQGLSSPVTKSFNRGEC
notes: also called M103205H795-MY101; copies: 2 + 2
B2: MS1032LO19-SG1074 (antibody, name in EU numbering)
heavy: QVQLVESGGGLVQPGGSLRLSCAVSGIDLSHDDISWVRQAPGKGLEWVSIISYAGSTYYASWAKGRLTISKDTSKNQVVLTMTNMDPVDTATYYCARGVPAYSHGGDLWGQGTLVTVSSASTKGPSVFPLAPSSKSTSGGTAALGCLVKDYFPEPVTVSWNSGALTSGVHTFPAVLQSSGLYSLSSVVTVPSSSLGTQTYICNVNHKPSNTKVDKKVEPKSCDKTHTCPPCPAPELLNGPSVFLFPPKPKDTLMISRTPEVTCVVVDVSDEDPEVKFNWYVDGVEVHNAKTKPREELYNSTYRVVSVLTVLHRDWLNGKEYKCKVSNTALPKPIEKTISKAKGQRREPQVYTLPPSREEMTKNQVSLTCLVKGFYPSDIAVEWESNGQPENNYKTTPPVLDSDGSFFLYSKLTVDKSRWQQGNVFSCSVLHEALHAHTTRKELSLSP
light: B1 light with S25T, A32E
notes: tied to rows r15/r33 by row order only; also called MS103240H795-SG1074
B3: M103205H795-MY065/M103202L889-SK1 (antibody, human IgG1, kappa, name in EU numbering)
heavy: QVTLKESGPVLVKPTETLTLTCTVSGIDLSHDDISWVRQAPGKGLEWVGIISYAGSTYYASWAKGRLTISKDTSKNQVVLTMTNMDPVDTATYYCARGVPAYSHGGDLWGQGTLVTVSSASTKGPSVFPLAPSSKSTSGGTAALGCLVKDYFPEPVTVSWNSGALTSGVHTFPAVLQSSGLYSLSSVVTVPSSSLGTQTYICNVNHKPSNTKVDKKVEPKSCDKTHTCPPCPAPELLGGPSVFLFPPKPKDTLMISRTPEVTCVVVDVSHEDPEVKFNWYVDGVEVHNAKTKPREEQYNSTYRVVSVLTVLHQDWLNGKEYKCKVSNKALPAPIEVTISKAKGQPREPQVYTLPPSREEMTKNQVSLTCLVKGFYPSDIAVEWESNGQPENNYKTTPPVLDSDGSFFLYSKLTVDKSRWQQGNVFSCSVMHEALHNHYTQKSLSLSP
light: B1 light
B4: M103205H795-MY066/M103202L889-SK1 (antibody, human IgG1, kappa, name in EU numbering)
heavy: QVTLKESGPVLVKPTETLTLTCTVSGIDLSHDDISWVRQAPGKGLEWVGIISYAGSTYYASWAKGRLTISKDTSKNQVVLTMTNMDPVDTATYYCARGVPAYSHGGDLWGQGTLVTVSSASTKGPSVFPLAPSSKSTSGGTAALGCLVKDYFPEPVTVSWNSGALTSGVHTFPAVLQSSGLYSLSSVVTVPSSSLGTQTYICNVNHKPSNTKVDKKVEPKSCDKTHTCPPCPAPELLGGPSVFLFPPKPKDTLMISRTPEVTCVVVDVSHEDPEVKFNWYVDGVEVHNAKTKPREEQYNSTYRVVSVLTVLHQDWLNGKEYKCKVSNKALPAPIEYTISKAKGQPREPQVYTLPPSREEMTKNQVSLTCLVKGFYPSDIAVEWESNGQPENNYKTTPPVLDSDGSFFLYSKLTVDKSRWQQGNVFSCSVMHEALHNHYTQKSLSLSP
light: B1 light
B5: MS1032LO06-SG1031 (antibody, human IgG1, kappa, name in EU numbering)
heavy: B1 heavy with E270D, Q313R, M398P, D415K, N436A
light: B1 light
notes: tied to rows r10/r28 by row order only; also called MS103205H795-SG1031; copies: 2 + 2
B6: MS1032LO06-SG1029 (antibody, human IgG1, kappa)
heavy: B1 heavy with E270D, Q297L, Q313R, M398P, D415K, N436A
light: B1 light
notes: tied to rows r9/r27 by row order only; also called MS103205H795-SG1029; copies: 2 + 2
B7: M103205H795-MY524 / M103202L889-SK1 (antibody, human IgG1, kappa, name in EU numbering)
heavy: B1 heavy with A233G, N238T, E270D, Q297L, M398P
light: B1 light
B8: MS1032LO06-SG1016 (antibody, human IgG1, kappa)
heavy: B1 heavy with Q313R, D401K, N436A
light: B1 light
notes: tied to rows r8/r26 by row order only; also called MS103205H795-SG1016; copies: 2 + 2
B9: M103205H795-MY012/M103202L889-SK1 (antibody, human IgG1, kappa, name in EU numbering)
heavy: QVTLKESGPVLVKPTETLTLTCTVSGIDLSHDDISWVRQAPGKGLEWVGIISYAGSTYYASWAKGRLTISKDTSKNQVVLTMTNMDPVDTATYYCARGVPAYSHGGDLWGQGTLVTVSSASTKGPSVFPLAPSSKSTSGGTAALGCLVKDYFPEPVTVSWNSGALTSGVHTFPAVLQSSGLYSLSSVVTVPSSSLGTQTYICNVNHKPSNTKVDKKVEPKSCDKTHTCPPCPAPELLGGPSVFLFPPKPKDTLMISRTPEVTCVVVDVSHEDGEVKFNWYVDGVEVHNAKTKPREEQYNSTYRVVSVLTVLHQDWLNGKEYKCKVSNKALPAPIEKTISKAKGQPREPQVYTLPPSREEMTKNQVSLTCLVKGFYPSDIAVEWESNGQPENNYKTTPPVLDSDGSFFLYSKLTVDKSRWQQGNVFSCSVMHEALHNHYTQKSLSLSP
light: B1 light
notes: Substitution introduced into M103205H795-SG1; EU numbering
B10: M103205H795-MY015/M103202L889-SK1 (antibody, human IgG1, kappa, name in EU numbering)
heavy: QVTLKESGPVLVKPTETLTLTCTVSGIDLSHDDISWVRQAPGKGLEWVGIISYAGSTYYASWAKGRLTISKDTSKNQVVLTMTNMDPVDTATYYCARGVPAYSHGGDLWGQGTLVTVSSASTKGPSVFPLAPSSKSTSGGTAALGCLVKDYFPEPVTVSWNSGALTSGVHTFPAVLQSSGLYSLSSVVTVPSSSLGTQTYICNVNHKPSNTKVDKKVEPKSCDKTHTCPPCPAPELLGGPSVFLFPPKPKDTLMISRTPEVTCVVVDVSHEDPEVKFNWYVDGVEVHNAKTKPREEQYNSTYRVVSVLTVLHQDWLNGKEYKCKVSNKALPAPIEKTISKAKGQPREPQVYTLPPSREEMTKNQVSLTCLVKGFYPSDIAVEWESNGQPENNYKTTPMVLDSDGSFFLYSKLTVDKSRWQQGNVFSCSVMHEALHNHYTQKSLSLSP
light: B1 light
B11: M103205H795-MY516 / M103202L889-SK1 (antibody)
heavy: B1 heavy with N238T, S241V, E270D, Q297L, S300L, M398P
light: B1 light
notes: 'Q235L' copied as printed, probably Q295L
B12: MS1032LO19-SG1079 (antibody)
heavy: B2 heavy with T328K, R345P, D415K, L430M, T438Y
light: B1 light with S25T, A32E
notes: tied to rows r17/r35 by row order only; also called MS103240H795-SG1079; copies: 2 + 2
B13: M103205H795-MY067/M103202L889-SK1 (antibody, human IgG1, kappa, name in EU numbering)
heavy: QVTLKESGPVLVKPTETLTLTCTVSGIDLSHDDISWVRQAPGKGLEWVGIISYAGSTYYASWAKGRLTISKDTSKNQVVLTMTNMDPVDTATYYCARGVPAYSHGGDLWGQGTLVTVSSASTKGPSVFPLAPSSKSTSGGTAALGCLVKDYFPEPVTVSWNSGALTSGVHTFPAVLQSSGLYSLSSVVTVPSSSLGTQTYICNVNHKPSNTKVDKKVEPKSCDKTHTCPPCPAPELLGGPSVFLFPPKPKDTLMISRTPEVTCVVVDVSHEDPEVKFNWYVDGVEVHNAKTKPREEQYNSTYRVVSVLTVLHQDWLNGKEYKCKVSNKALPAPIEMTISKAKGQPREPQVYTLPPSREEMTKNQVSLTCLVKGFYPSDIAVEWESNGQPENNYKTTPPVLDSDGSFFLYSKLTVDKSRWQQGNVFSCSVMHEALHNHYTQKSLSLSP
light: B1 light

How the values were obtained:
[1] = biological target: T1, cynomolgus monkey FcγRIIIaS …; experiment: SPR, antibody captured, FcγR analyte
Experimental: (§1) The kinetic analysis of interactions between these antibodies and FcγR was carried out using BIACORE® T200 or BIACORE® 4000 (GE Healthcare). HBS-EP+ (GE Healthcare) was used as the running buffer, and the measurement temperature was set to 25° C. […] After the measurement, the antibody captured on the chip was washed off by allowing reaction with 10 mM glycine-HCl, pH1.5 and 25 mM NaOH so that the chip was regenerated and used repeatedly. The sensorgrams obtained as measurement results were analyzed by the 1:1 Langmuir binding model using the BIACORE® Evaluation Software to calculate the binding rate constant ka (L/mol/s) and dissociation rate constant kd (1/s), and the dissociation constant KD (mol/L) was calculated from these values. […] Regarding such interactions, KD values were calculated using the following 1:1 binding model described in BIACORE® T100 Software Handbook BR1006-48 Edition AE.

[2] = biological target: T1, cynomolgus monkey FcγRIIIaS …; experiment: SPR, KD(parent SG1)/KD(variant)
[3] = biological target: T2, human FcγRIIaH extracellular domain …; experiment: SPR, KD(parent SG1)/KD(variant)
[4] = biological target: T3, human FcγRIIaR extracellular domain …; experiment: SPR, KD(parent SG1)/KD(variant)
[5] = biological target: T4, human FcγRIIb extracellular domain with …; experiment: SPR, KD(parent SG1)/KD(variant)
[6] = biological target: T9, cynomolgus monkey FcγRIIIaS extracellular domain, His-tagged (cynomolgus monkey, UniProt A3RFZ7 21-206 (rhesus entry)); experiment: SPR (BIACORE), antibody captured on chip, FcγR as analyte, 25 C; KD of M103205H795-SG1 divided by KD of the variant
T9 construct: also called cyno FcγRIIIaS; cynoFcγRIIIaS; not shown: His-tag added to the C-terminus
Experimental: as §1

[7] = biological target: T5, human FcγRIIb extracellular domain with …; experiment: SPR (Biacore), KD of SG1 divided by KD of variant
Experimental: as §1

[8] = biological target: T6, cynomolgus monkey FcγRIIa2 …; experiment: SPR (Biacore), antibody captured, FcgR as analyte
Experimental: as §1

[9] = biological target: T7, human FcγRIIaR extracellular domain, …; experiment: SPR Biacore, KD(SG1)/KD(variant)
Experimental: as §1

[10] = biological target: T8, human FcγRIIb extracellular domain, …; experiment: SPR Biacore, KD(SG1)/KD(variant)
Experimental: as §1

Row | Binder | KD fold (SG1 = 1) [2] [fold] | KD fold (SG1 = 1) [4] [fold] | KD fold (SG1 = 1) [5] [fold] | KD fold (SG1 = 1) [6] [fold] | also measured
1 | B1 |  |  |  |  | Kd [1]: 3200 nM
2 | B2 | 0.19 | 1.1 | 10.7 |  | KD fold (SG1 = 1) [3]: 1.2 fold
3 | B3 |  |  |  | 3.27 | 
4 | B4 |  |  |  | 2.25 | 
5 | B5 | 0.05 | 1.7 | 3.2 |  | 
6 | B6 | 0.05 | 0.6 | 5.9 |  | KD fold (SG1 = 1) [3]: 1.5 fold
7 | B7 |  |  |  |  | KD fold (SG1 = 1) [7]: 4.6 fold; Kd [8]: 1100 nM
8 | B8 | 0.17 | 1.2 | 0.7 |  | KD fold (SG1 = 1) [3]: 1.8 fold
9 | B9 |  |  |  |  | KD fold (SG1 = 1) [9]: 4 fold; KD fold (SG1 = 1) [10]: 5.1 fold
10 | B10 |  |  |  | 3.6 | 
11 | B11 |  |  |  |  | Kd [8]: 1300 nM
12 | B12 | 0.04 | 0.1 |  |  | 
13 | B13 |  |  |  | 3.6 | 
